In US20230391863A1 (published 2023) one finds Kd data, which are given here for one molecule.

The target in assay [1] is A109 (SEQ ID NOs: 39 & 17) (Homo sapiens (Human), UniProt P0DOX7 1-214). In words: BLI (Octet RED96), affinity-purified antagonist captured on biosensor, ligand in solution. The method, then:
(§1) In this example, the human ligand binding activities of several bifunctional antagonist molecules were measured by biolayer interferometry (BLI) using Octet RED96 (FortéBIO, Pall Corporation, USA). Binding analysis was performed by capturing the polypeptide bifunctional antagonists to biosensors. To measure the rate of association and dissociation, the bifunctional antagonists-captured biosensors were dipped in wells containing different concentrations of ligands (such as TNF-α, Activin A, Activin B, Activin AB, myostatin, and GDF-11) diluted in 1× kinetic buffer for 10 min followed by 10-20 min in 1× kinetic buffer. The bifunctional polypeptide antagonists-captured sensors were also submerged in wells containing 1× kinetic buffer to allow single reference subtraction in order to compensate for natural dissociation of the captured bifunctional antagonists. The binding sensorgrams were collected using the 8-channel detection mode on the biosensor. Data were acquired and analyzed using the FortéBIO data acquisition software v11.1 (FortéBIO, Pall Corporation, USA).

For assay [2], the target named is A110 (SEQ ID NOs: 41 & 17) (Homo sapiens (Human), UniProt P0DOX7 1-214). The description is as above. As for the experimental part: as §1

B1: human Activin A (ligand)
chain: GLECDGKVNICCKKQFFVSFKDIGWNDWIIAPSGYHANYCEGECPSHIAGTSGSSLSFHSTVINHYRMRGHSPFANLKSCCVPTKLRPMSMLYYDDGQNIIKKDIQNMIVEECGCS
modifications: Activin A is a disulfide-linked homodimer of two identical inhibin beta A chains. The chain is given once.
Take B1: the Kd (in general, a measure of binding affinity in units of concentration) in assay [1] is roughly 0.52 nM; in assay [2], roughly 0.16 nM.
